Assay results reported in patent publication CN109021108A (UNIV NANJING MEDICAL, dated 2018).

Columns and labels:
GPC3-his蛋白 = target: T1, GPC3-his蛋白 (UniProt P51654 25-559); assay: ELISA titration, GPC3-his coated at 5 μg/ml, 32A9 IgG from 20 μg/ml in 1:2 dilutions, fitted affinity curve
T1 construct: also called GPC3蛋白; not shown: his tag

[1] = target: T2, GPC3 on A431-GPC3细胞 (A431 cells stably transfected with GPC3 cDNA) (UniProt P51654 25-554); assay: flow cytometry titration on A431-GPC3 cells, 32A9 IgG from 60 μg/ml in 1:2 dilutions, fitted affinity curve
T2 construct: whole, on cells; also called GPC3阳性细胞; GPC3阳性靶细胞
T2 sequence (P51654 25-554 limits assumed, form in doubt): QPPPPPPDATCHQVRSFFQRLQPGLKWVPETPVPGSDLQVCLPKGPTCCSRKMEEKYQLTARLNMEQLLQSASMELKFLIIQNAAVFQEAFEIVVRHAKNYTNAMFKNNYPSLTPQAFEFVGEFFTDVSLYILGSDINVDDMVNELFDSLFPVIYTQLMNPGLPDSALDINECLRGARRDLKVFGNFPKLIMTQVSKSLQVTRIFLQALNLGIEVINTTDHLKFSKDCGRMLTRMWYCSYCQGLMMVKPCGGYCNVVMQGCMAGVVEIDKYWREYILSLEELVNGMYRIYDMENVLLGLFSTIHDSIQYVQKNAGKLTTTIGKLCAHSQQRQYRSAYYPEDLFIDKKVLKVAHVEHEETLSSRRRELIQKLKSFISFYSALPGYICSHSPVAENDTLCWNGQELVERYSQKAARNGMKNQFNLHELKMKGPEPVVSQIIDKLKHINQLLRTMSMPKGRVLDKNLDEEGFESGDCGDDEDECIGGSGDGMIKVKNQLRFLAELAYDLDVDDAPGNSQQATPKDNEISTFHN

T1 sequence (P51654 25-559 limits assumed): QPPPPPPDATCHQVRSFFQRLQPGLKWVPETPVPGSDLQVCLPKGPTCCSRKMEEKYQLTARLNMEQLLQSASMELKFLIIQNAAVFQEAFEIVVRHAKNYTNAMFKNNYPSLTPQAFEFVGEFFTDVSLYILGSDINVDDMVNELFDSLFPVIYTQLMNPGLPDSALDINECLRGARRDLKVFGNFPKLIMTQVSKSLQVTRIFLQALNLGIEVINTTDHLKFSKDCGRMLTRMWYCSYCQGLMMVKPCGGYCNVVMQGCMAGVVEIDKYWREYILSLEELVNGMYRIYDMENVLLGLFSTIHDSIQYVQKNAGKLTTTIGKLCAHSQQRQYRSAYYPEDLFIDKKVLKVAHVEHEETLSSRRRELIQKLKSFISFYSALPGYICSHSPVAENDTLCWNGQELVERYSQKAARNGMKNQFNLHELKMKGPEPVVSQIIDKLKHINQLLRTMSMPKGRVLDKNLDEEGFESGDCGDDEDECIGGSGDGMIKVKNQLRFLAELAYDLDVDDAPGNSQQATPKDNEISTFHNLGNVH

B1: 32A9IgG重组蛋白 (抗体32A9, anti-GPC3 fully human antibody, IgG form) (antibody, V domains shown)
VH: EVQLLESGGGLVQPGGSLRLSCAASGFTFSSYAMSWVRQAPGKGLEWVSGIAYNGASTAYADSVKGRFTISRDNSKNTLYLQMNSLRAEDTAVYYCAKSAGSFDYWGQGTLVTVSS
VL: DIQMTQSPSSLSASVGDRVTITCRASQSISSYLNWYQQKPGKAPKLLIYSASSLQSGVPSRFSGSGSGTDFTLTISSLQPEDFATYYCQQDYAYPYTFGQGTKVEIK
notes: also called 32A9IgG蛋白
Which Kd (GPC3-his蛋白) does the source give for B1 here?
Its Kd is 1.93 nM.

And the Kd [1]?
Its Kd is 6.25 nM.
